Assay results: patent publication WO2007088823A1 (dated 2007)

Target: T1, Recombinant Human TNF-α (Strathmann Biotec AG, hTNFa-1000, Lot 090590) (human, UniProt P01375 77-233)
T1 construct: Bought protein; runs at 17.0 kDa on SDS-PAGE; also called cachectin
Assay: ELISA, hybridoma culture supernatant on coated proteins (cross-reactivity test)

T1 sequence (P01375 77-233 limits assumed): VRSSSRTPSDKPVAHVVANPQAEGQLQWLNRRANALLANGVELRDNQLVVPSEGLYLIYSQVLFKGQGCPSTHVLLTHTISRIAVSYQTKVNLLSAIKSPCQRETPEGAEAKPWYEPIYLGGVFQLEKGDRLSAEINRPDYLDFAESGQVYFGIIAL

- binding result: binds
B1: ETNF-6 antibody (antibody, V domains shown)
VH: EVQLQQSGPELVKPGASVKISCKASGYSFTAFYMHWVKQSHVKSLEWIGRINPYNGATSYNQNFKAKASLTVDKSSSTAYMELHSLTSEDSAVYYCARSEDWDKTMDYWGQGTSVTVS
VL: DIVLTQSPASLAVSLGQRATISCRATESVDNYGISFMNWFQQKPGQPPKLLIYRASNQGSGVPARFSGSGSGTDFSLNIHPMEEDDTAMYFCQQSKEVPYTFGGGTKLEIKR
notes: Mouse monoclonal antibody, tested as hybridoma culture supernatant; also called ETNF 6 monoclonal antibody
